Measured values reported in the supplement of paper PMC12636428.

These sequences were tested on Saccharomyces cerevisiae (assay: transcriptional activation domain activity (GFP:mCherry ratio, weighted mean of sorted bins, harmonized to initial dataset scale) (arbitrary fluorescence ratio units); higher = stronger transcriptional activation). Settings: beta-estradiol 1 µM; induction time 4 h.
Procedure, shortened: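 Each value is an activation activity: the read-weighted mean of bin median fluorescence, averaged across barcodes, then mapped linearly to the initial dataset scale. The tiles, fused to an estradiol-inducible synthetic transcription factor, sat at the yeast URA3 locus in GFP-reporter diploids. Cells spent 4 hours at 30 °C in SC with 1 uM beta-estradiol before sorting into 8 GFP:mCherry bins, and tiles below 50 reads were removed.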

Sequence | transcriptional activation domain activity
GVEWWNVTSPEDSTYDPASLPLDVWDPLLPHDTGFSEIDITQCFFDPFFMPFL | 160000
KSDAAAQVPSRGQKRDRDGDEEGSDAEAGVPGTPIRSSRKTKKRGKKSKEPRE | 50200
SRDRDRKEKTDKTDKDRERDREKERRGEREREREKERERERAERHRERDRERE | 32800
KCSKVEPWVINVAAVFPSVFLLGFVENFFWFRRMMLGKGCLRFGTVCWALLFI | 65800
MRGLCRSLKLCKLFVTMFDGWMMLFSFFFFFLFLLFFYYYSCCSDGFLLCFFL | 42500
GVLMCYYSRSHNFDVAKRHFQRILNLLPLLKSTPNIFPLYGLIFSTMGLLVLI | 62600
VDLTQLSHLMLKIWLELILIVVYKHNILERTYENMVISCMKQVIDLLARDISE | 51900
GQLLVALAREAFTLVTWRTTLQGKLEVEIFPPSDLLLNRYMWYVLHLLDHTSL | 13100
YNIRAKGFNIFNITISVALVFNQYVNPIALAALTWKYYVVYCVWLVCECIFLY | 60100
VVLPCLNLVLAVRKYFVRYLMMPRYSTLQVFGEENAAGYRPMLFWEIEPWYVA | 41800
QLAIELSAFADDSFIFPDEDKPSNNNNNSNNGNDDHSNHDVLHEDPSTNNRQR | 16300
MGLGVLYHLSLLFPFLFFFLYLSSSFPSFLILFFFFFGYSPSAVWVFLFCFGQ | 58100
AAAAAAAEGDGEGKGKEDGEDKEKEGGNGEAEAEAGAEGKKAAAGAAQKESSN | 35100
CRGIYTLHTTNLMIVDDIVYLWRYDRQNVIQSTGLNFITDMPYFMALLAVFQR | 48500
AGDKPEKSKKDKKKEKEEKKKAAVAAEKEKQEKGDEAVAAAPSPVAAATPSLL | 29900
MSLFFLFFFFFSSFFSFFLLLPLCSVMFMPPVLSLYGVTMGFLPPPPFFFFLF | 37900
MHPPTHYRLLSPPLFPYIFFFQVGFLLRFFSLFFSLVSLVLILCVTFFFFFFG | 57500
MGVICIFICFAVGLSTIITNLLSWLLLFSIICLICAPIILFVEVPFLLRICPT | 61400
MSRKIYCTPAFSTIHLLYLHNFFLIPIYYLQTSLRNILSKLSFCLILSILLLP | 52900
MTLVVMMILPPLASLDCFLLSFFFSLLLSPTFPLVLFFSVYKFFHFSTFPFFV | 54800
LGQLLLLLLLLLLLLLLLLLLLLLLLLLLLLLLRRRRRRWWWWRRLLILRIRR | 73200

Sequence | transcriptional activation domain activity
MGLSSSCFFLLLLVLSLFYYFFLSFFFIGHVAYFMTCGGLERAFLYLLLLLLL | 49100
LHFFLAFIFLLSAYFHVRGRDLTYYGVWPSMVVWGLDRFLRLLRIGVFNFRYI | 42000
RDDGRRRNEKPQRSKNKGTSSTGSDKKKTTEKKSSSSRKTSGSQVDKKLSSKK | 37900
MLLFIFWRLLYFFILGSLLRAQSRRKWLVRWCREHGFGPNPRRPRSGWVTFWV | 59600
GPLCMDQYRRIFGVTRRPGLSVDSTVLASDLNGRVSILVLLRNRLFRLSLPTG | 42400
FALMLREPAIQDVMSLLITTMSKFMDWFDFLDLIVTYPEFPDPKWLTTLFLIL | 23900
RPEEAPSTDEEESRGECWSEGKLCLENYMRLNDLEPENSDPEQLAHVKELLEK | 47500
MDDDIAMFDSLATTQPIDIAASNQQNGEIAQLWDFNVDQFNMTPSNSSGSATI | 76100
ALCEDRSQTWHPGTQLDFPQELLDQLNYYLVNLRKYFNNESILFLVYLGCVIF | 59600
EESLKHHEGINMVWRKFQSIFRIIGGIIYYEPIYRAFVRHVLHHLHLDNVLWV | 64600
CDNIYLQQDQCGYVLEHCMDATPGLFNYIQLYYCSSFRPLVFIFMCGWLLFLF | 54900
SFIHSLLYAFLSFFPHLFISYFLSSFYYLSTHLFLSFFPFLVILFTSCYQNLS | 57700
DEVMKIMPVQKQTRAGQRTRFKAFVVIGDSEGHVGLGVKCAKEVATAIRGAII | 59300
AASFISRTMLVLARQKFYNWYGVPQRRLYRDQSVHGTTKKRTWLIKLLSPLLF | 47200
MNCGIGFLNFHSQTSFKFLLFILFHFNFFAYLPLLTSCYSRLFSFSFSTIYFI | 61200
QSPSISMEPVSINETGSAYTTTNTALNDIDIPFSINELNELYKQVSSHNSHSQ | 84100
VSTCLIKFLALIIEDLHHYFDPFQLKLIGVLVTWYEGAFAKSLFPGELISSEA | 52400
RIILINPLICGATLMLVFAAIGGGWRNVAIEIFVDHGYIRLLFILCTIPQIWL | 56800
PSGIIVLVICTLGLLCCTIMIILIFYFRYFKPIMSSSPIFCYLQLVGISMAYI | 46000
LFASMIPSMRDLIVIVLTLPNHATVIELQHYALEIAEQLTRFWFLRAENPLYR | 62600
KIHLVNISQVVVFFVYRFLYGLIPLFEIATCAYYPLLVSLWHLDYLLFYAVMF | 48100

Sequence | transcriptional activation domain activity
LLYLLLLLRKVSVMLCFIDLLIFGIFLCFLSLLLFLSLFFLFLFLLVFSEEFF | 37600
MRLVYFCAGIYFLVADLVFSLFLFSFSSLLTLFFSPFFSLSLGLTLLEIQFTF | 51800
SVEDAADTTVSTDLKAADDATTEAAADDDAPRKKHKKSKSKKDKHRRAAADAE | 11600
NMMLYLLKGLPALSMSDPASITRFIKLVDELLYYAYEAERRSPLPTSHPNLVR | 65700
ILVLIVSNLRLMIENFRKYGVLICIRCHDYRRQDVVYGSILYFLVPCHLFVAY | 51300
AAAGRRGPGKRKGSRTSPGTAGGGGGRGGRGGGGRGGGARGGGAGGEAAGGAT | 29900
MQAGIHNVLFHFRNKWWIQIIGSGLPYFVLLAGRGLMCIFLFLIFRLRRCLCV | 67300
KARQDKEPAMTQKDLATKINEKPSVINDYESGRAIPNQQVLGKLERALGVKLR | 40000
NSTIHNLLEVVLLPDLCGFCCFSMRFVVLLDLIGTLTLPVTCLYLIYLIYVIA | 52100
LLMYTLFYMISEIFYSVAYDAHYFMFDPISVALVQCPMFACVVISVLYGHIWS | 57800
STPAPTTAAGGKKEAEKPEEKSEEKPEEKPAEKPAEKPAEKPAEVKPEEKAIQ | 25400
GTGDEQTGSGEKGKKKKASRACYHCQKAHLTCDDARPCGRCVKRNLASTCTDG | 40600
LRWMLRCAFALTRYGTTAFLLFFVYVVFLLRVYLLTDRRRSLLYCLTATFVVE | 40100
MFSFSFPLFLSPLPISLFFLPFALSYSLLSSHLMADICLSSTRWLSSIFFSFF | 36100
SSAKDIEGDGDGADVIRNNRLAKRSTAGVKVKKHVAQIIKMRKVTPRSIAYIA | 40000
HLNGESSPQLVPHSHHQPHSDTDEEDWESIGAASLRNNSLAPNIDSVASSTNG | 45100
KGGGAGGGKRAKKEESSDDEAAKPLAKRGKGTANGRANGKARASSAAPVDNQK | 44600
AWLIHCILLFPWSSKLFPSWCGHMTSCYEFYVLGAISVCNCAVVFVYWLILLV | 56600
MDRVSIRFTLAISLADLGQAVLHMIGSKFSWLSCGLLLGISRFLCLFYIFLSV | 57100
SREGKGGGAGRGKGGEQGGGMGEGKQGGGGGEAERGSREGKQRGEAGGRGKEE | 44600
DSRKEERRPSGHERKDRERGRDSRKDRDRKRKERLDDTASDDKKDRKRDRGEK | 24700

Sequence | transcriptional activation domain activity
VERCHRNIVTNGCAVFQAGGLVVVLVEVNRKSYLASIVPVIVNAILNEHQIIV | 40900
MFFLLVLAAVISGYKAVLKHFLVVISLFLHMIYLVPPLCLWKPILVASILSSP | 44700
VVLWHIVISLRFWFNFVSVVPALRWVYLSIYEIKVDYKNLIEYTLPQLCSLFI | 54600
MHVAYFMVLFFFIVLIDAHLVVPYIFDVELLTYMLNDAFKFDLFGCFCKVIVI | 68900
ELLVLLDQHWNYSRLRYPICFLSRTASEMLTFVRSMMEWLGGTVSKEDVGEDG | 25800
IIAAKPEVLVKEEAAVKEEVPKAAAAKPKAKGKGKGKGKGKKVAEKKPEPVAE | 22400
VLLQNLCRMVITRLGDWTLFKAFVLCCCLYRLSFFHDLFLFLYTFSFPLLCFT | 57100
VTRHHEFLRVHLNEKGEKLLYITHRLDKNGFDVRVFLVAASGFLTDSYILFVT | 39700
EDEEEAPAKVIKAKRAPPKRKAPAKDDDDEESAEEKPKKKKAPSKKAAAKAQA | 38200
FLHLLKIIRPSFAFYFTILFWWCIQVQLLLQIIINRIRVIVPNRKLSRHIMWG | 66300
DEEDIWNYLPSSSSQQEDSSRALKKNTNSEKANIQAKNDETYLFLQDQDESAD | 46700
MPPLLQLRLVHFLQLCLLLLLLLLRLHLLELLHFLLVFLLHRSILLLCQICSL | 54800
AGPARTGSSSSSSSSDEDKKKKKDKAEEKVEEKKEKPEEKAEDKKEASTAVAA | 23300
EAARKETDAEGVRKTKVKKSRKRKAPEDGLEADEEGAARRTARARKTPAEAEA | 28700
MRLIYLPIIFCRLPSHGWTIWMPIIRALSLLVFSLIYLLFIGDLPALTLTIFF | 50900
QVKGNAATLVVRSLALNADLCKLVECLWFLDRYVLVEGKHWAAALPRMKNLWF | 32200
ILLRRAWTVNAEMLLHKFDPRLFPLYFRILYPTWDTCSIPAPSRLVGAAKQWL | 46700
AGGGRKAKATQTGAGASRQKTKTGFQTGRSRRAGNAKTKTNRRAINKPRNGDS | 28900
ARFNLYLLSWLHVLSAKSASLGSSKAWWIRPAEIAMMSCYWYIFGYLLLWCTL | 65800
VGSAINTRLTTPKLVDSPKRPGCLSISRKDQHETYLSLLMRLVVASKMCLSAY | 50800
